Measured values as given in patent publication US20250026838A1 (TRUEBINDING, published 2025).
Positions count from the first letter of the chain named. Numbers in names are those of the source.

B1: TB006 (antibody, human IgG4 S228P, kappa, V domains shown)
VH: QVQLVQSGAEVKKPGASVKVSCKASGYSFTNYYMHWVRQAPGQRLEWMGWIYPGSGNTNYNEKFQGRVTITADTSASTAYMELSSLRSEDTAVYYCSTAPGGFDVWGQGTTVTVSS
VL: DIVMTQTPLSLSVTPGQPASISCKSSKSLLHSDGITYLYWYLQKPGQSPQLLIYRMSNLASGVPDRFSGSGSGTDFTLKISRVEAEDVGVYYCAQMLEFPLTFGQGTKLEIKR
notes: also called hTB006; hTB006Ab
B2: 846.1H12-hIgG4(S228P) (antibody, V domains shown)
VH: QIQLVQSGPELKKPGETVKISCKASGYTFTNFGMNWVKQAPGKGLKWMGWINTYTGEPSYADDFKGRFAFSLETSASTAYLQINNLKNEDIATYFCARWGGYAGDYYAMDYWGQGTSVTVSS
VL: NIMMTQSPSSLAVSAGQKVTMSCKSSQSVLYSSSQKNYLAWYQQKPGQSPKLLIYWASTRESGVPDRFSGSGSGTDFTLTISSVQPEDLAVYYCHQYLSSLTFGAGTKLELK
notes: also called F846C.1H12; QC200172 IMTAB0196
B3: 14H10.2C9-hIgG4 (S228P) (antibody, V domains shown)
VH: QIQLVQSGPELKKPGETVKISCKASGYTFTTYGMGWVKQAPGKDLKWMGWINTYSGVPTYADDFKGRFAFSLETSASTAYLQISNLKNEDTATYFCSTPYEYDGAYWGQGTLVTVSA
VL: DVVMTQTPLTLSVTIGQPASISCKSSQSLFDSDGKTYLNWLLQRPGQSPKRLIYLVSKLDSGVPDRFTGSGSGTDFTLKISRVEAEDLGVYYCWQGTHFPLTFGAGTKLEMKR
notes: also called QC200137; IMTAB0172
B4: 84712F12-hIgG4(S288P) (antibody, V domains shown)
VH: QIQLVQSGPELKKPGETVKISCKASGYTFTNYGMNWVKQAPGKGLKWMGWINTYTGEPTYVDDFKGRFAFSLETSASTAYLRINNLKNEDTATYFCAKFGNYVGAMDYWGQGTSVTVSS
VL: DIQVIQSPSSLSASLGDTITITCHASQNINVWLSWYQQKPGNIPKLLIYKASNLHTGVPSRFSGSGSGTGFTLTISSLQPEDIATYYCQQGQSYPYTFGGGTKLELK
notes: also called 847.12F12-hIgG4 (S228P); F847C.12F12
B5: TB001 (antibody, V domains shown)
VH: QVQLVQSGSELKKPGASVKVSCKASGYTFTNYGMNWVRQAPGQGLKWMGWINTNTGEPTYVEEFTGRFVFSLETSVSTAYLQISSLKAEDTAVYFCAPYDNFFAYWGQGTTVTVSS
VL: DIVLTQSPLSLPVTPGEPASISCRSSKSLLYKDGKTYLNWFLQKPGQSPQLLIYLMSTHASGVPDRFSGSGSGTDFTLKISRVEAEDVGVYYCQQLVDYPLTFGGGTKLEIK
notes: also called hTB001; IMT001-4-HCLC (TB001)
B6: 20D11.2C6-hIgG4(S228P) (antibody, V domains shown)
VH: EVQLQQSGPELVKPGASVKISCKASGYTFTDFYINWVKQSHGKSLEWIGDINPKNGGINYNPKFKIKATLTVDKSSSTSYMDLRGLTSEDSAVYYCTSGYGFPYWGQGTLVTVSA
VL: DIQMNQSPSSLSASLGDTITITCRASQNIYIWLSWYQQKPGNIPKLLIYKASNLHTGVPSRFSGSGSGTDFTLTISTLQPEDIATYFCLQGQSYPLTFGAGTKLEMKR
notes: also called QC200083
B7: 15G7.2A7-hIgG4(S228P) (antibody, V domains shown)
VH: B6 VH with F32Y, I34M, K54N, I58T, P62Q, I66G, S79A, D82E, G85S
VL: DIQMNQSPSSLSASLGDTISITCRASQNINIWLSWYQQKPGNIPQLLIYKASNLHTGVPSRFSGSGSGTDFTLTISSLQPEDIATYYCLQGQSYPLTFGAGTKLVMK
notes: also called QC200074
B8: 846.1F5-hIgG4(S228P) (antibody, V domains shown)
VH: B2 VH with F32Y, I91M, A103D
VL: B2 VL with Q17E, S34N, S69T
notes: also called F846C.1F5; QC200110
B9: 846T.16B5-hIgG4(S228P) (antibody, V domains shown)
VH: B2 VH with F32Y, S59A, I91M, A103D
VL: B2 VL with Q17E, S34N, S69T, P86A
notes: also called F846T.16B5; F846TC.16B5
B10: 846T.14A2-hIgG4(S338P) (antibody, V domains shown)
VH: QIQLVQSGPELKKPGETVKISCKASGYTFTNYGMNWVKQAPGKGLKWMGWINTYTGEPTYAGDLKGRFAFSLETSASTAYLQINNLKNEDTATYFCVRYTMDYWGQGTSVTVSS
VL: QAVVTQESALTTSPGETVTLTCRSSTGAVTTSNYANWVQEKPDHLFTGLIGGINNRVPGVPARFSGSLIGDKAALTITGAQTEDEAIYFCALWYSNHWVFGGGTKLTVL
notes: also called F846TC.14A2; QC200122

What follows are binders tested against T1, Human Galectin-3 (Gal3) protein (human, UniProt P17931 1-250) (assay: competition ELISA, hGal3 coated; competitor: biotinylated hTGFβR2).
T1 construct: also called hGal3; rhGal-3
T1 sequence (P17931 whole entry): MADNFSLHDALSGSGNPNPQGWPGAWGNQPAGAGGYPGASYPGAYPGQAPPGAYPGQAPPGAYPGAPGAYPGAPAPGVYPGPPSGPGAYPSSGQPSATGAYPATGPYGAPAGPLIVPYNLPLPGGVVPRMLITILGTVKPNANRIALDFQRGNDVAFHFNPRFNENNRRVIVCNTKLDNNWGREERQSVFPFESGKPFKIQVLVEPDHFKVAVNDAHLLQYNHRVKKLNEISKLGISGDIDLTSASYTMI

Row | Binder | blocking efficacy [%]
1 | B1 | > 90
2 | B2 | > 90
3 | B3 | > 90

What follows are binders tested against T1, Human Galectin-3 (Gal3) protein (assay: competition ELISA, hGal3 coated; competitor: biotinylated aggregated alpha-synuclein).

Row | Binder | blocking efficacy [%]
4 | B4 | > 70
5 | B5 | > 70
6 | B6 | > 70
7 | B7 | > 70
8 | B1 | > 70
9 | B8 | > 70
10 | B9 | > 70
11 | B10 | > 70
12 | B3 | > 70
